For three substances, Kd results are on record in article PMC6942045.

The target in this assay is K63-di-Ub (UniProt P0CG47). Kind of assay: ITC. On the technique in general: ITC needs no label: the signal is the heat of the interaction.

In general, Kd refers to a measure of binding affinity in units of concentration. Lower therefore signals a tighter complex. Regarding “Cezanne2 UBA (1-88 aa), GST cleaved (from UniProt Q8TE49 1-88) (domain or fragment)”, the Kd amounted to 20 µM.

Turning to “Rap80 UIMs (60-144 amino acids), GST cleaved (from UniProt Q96RL1 60-144) (domain or fragment)”, the Kd was determined as 6.4 µM.

Substance “Cezanne UBA (1-66 aa), GST cleaved (from UniProt Q6GQQ9 1-66) (domain or fragment)” returned a Kd of 20 µM.
